What all share (experiment): EMSA
In general terms: Mobility shift assays separate free from complexed probe on a gel.

Series [1] concerns Calb_Rsc1 213-599 WT (AT-hook-BD2-BAH) (Candida albicans). As to conditions: 50 mM Tris-HCl pH 7.5, 100 mM NaCl, 2.5% glycerol, 0.1 mM EDTA, 1 mM DTT.
The subject of series [2] is Calb_Rsc1 213-599 BAH mutant (Candida albicans). The conditions noted are these: 50 mM Tris-HCl pH 7.5, 100 mM NaCl, 2.5% glycerol, 0.1 mM EDTA, 1 mM DTT.
Series [3] deals with Scer_Rsc2 261-636 basic-surface mutant (Saccharomyces cerevisiae, UniProt Q06488 261-636, K286E;K289E;K290E).
The target of another series is Scer_Rsc2 261-636 WT (Saccharomyces cerevisiae, UniProt Q06488 261-636).
For a further series, the target named is T1, Scer_Rsc1 221-596 WT (Saccharomyces cerevisiae, UniProt P53236 221-596).
T1 sequence: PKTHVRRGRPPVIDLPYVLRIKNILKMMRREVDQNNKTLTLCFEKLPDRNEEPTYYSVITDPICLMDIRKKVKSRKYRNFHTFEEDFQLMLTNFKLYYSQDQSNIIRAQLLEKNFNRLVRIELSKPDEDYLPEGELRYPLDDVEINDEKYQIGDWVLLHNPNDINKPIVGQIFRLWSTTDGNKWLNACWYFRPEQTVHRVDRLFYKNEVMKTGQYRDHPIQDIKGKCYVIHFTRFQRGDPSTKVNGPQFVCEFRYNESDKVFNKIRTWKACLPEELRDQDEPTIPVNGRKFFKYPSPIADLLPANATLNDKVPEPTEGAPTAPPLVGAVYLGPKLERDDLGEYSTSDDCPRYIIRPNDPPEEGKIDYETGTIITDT

The target of series [4] is T2, Scer_Rsc1 221-596 basic-surface mutant (Saccharomyces cerevisiae, UniProt P53236 221-596, K246E;R249E;R250E).
T2 sequence: T1 sequence with K26E, R29E, R30E

The values below come from publication doi:10.1101/2025.03.24.644971.

Positions count from the first letter of the chain named.

Chain of Scer_Rsc2 261-636 WT (Q06488 261-636): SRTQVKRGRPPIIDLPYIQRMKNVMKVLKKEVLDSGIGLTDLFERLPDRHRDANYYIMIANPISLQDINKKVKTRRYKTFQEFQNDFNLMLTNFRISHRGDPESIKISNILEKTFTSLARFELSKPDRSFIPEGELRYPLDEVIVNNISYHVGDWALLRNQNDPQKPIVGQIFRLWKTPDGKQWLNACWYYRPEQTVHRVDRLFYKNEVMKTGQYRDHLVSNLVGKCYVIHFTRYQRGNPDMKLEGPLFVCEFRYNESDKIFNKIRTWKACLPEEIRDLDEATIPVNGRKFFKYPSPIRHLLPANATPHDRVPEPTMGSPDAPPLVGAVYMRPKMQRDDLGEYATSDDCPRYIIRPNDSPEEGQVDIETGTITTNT
Chain of Scer_Rsc2 261-636 basic-surface mutant (Q06488 261-636 K286E/K289E/K290E): as the sequence (Q06488 261-636) above, with K26E, K29E, K30E counted along it

As for “ATCAGGTCGCTGTTCAATACATGCACAGGATGTATATATCTGACACGTGCCTGGAGACTAGGGAGTAATCCCCTTGGCGGTTAAAACGCGGGGGACAGCGCGTACGTGCGTTTAAGCGGTGCTAGAGCTGTCTACGACCAATTGAGCGGCCTCGGCACCGGGATTCTCCAGGGCGGCCGCGTATAGGGTCCATCGAT (double strand) [197bp 601 DNA]”, the dissociation constant (Kd) (in general, the constant that tells how readily two partners part at equilibrium) in series [1] amounted to 1.9 µM; in series [2], 11.3 µM.
As for “ATCGATGTATATATCTGACACGTGCCTGGAGACTAGGGAGTAATCCCCTTGGCGGTTAAAACGCGGGGGACAGCGCGTACGTGCGTTTAAGCGGTGCTAGAGCTGTCTACGACCAATTGAGCGGCCTCGGCACCGGGATTCTGAT (double strand) [145bp 601 DNA]”, the values for the Kd in series [1] and in series [2] were 1.9 µM and over 15 µM, respectively.
Regarding “GCATCAGTCTTATAGGAAGAAAAACAAAAAGTCCATCGATCTAG (double strand) [A-rich (polyA) probe]”, the equilibrium dissociation constant (Kd) in series [1] amounted to 7.4 µM.

B1: A-rich (polyA) probe (dsDNA)
DNA 1: GCATCAGTCTTATAGGAAGAAAAACAAAAAGTCCATCGATCTAG
DNA 2: CTAGATCGATGGACTTTTTGTTTTTCTTCCTATAAGACTGATGC
Regarding B1, the binding result in series [3] and in series [4] was “no binding” throughout. For the same molecule, the dissociation constant Kd with Scer_Rsc2 261-636 WT was determined as 2.9 µM; with Scer_Rsc1 221-596 WT, 3.7 µM.
